Experimental data: US20130064834A1 (published 2013)
Where two headings read alike, the source gives them in different places.

What was measured:
[1] = molecular target: T1, Chimeric protein #3 (mPro-mCat-hC-term-mmh) (mouse; human); experiment: ELISA, mAb coated, 1.7 nM antigen
T1 chain: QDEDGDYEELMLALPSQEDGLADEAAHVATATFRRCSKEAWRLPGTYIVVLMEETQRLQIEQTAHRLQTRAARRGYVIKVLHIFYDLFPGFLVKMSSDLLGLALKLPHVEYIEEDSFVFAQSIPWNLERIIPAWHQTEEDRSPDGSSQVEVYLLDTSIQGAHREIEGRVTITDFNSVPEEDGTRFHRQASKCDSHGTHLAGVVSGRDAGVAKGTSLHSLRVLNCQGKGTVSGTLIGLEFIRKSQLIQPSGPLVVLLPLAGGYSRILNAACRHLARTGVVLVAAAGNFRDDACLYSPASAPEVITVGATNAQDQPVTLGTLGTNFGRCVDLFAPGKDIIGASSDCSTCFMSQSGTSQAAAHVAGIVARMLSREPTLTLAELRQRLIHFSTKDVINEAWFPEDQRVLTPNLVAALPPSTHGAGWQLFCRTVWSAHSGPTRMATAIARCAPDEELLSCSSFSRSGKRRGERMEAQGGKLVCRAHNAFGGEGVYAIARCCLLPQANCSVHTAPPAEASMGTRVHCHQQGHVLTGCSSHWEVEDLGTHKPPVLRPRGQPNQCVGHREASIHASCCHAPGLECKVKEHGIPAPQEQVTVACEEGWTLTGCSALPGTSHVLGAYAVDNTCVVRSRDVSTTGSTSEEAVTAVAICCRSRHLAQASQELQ

[2] = molecular target: T2, his-tagged Syrian golden hamster (Mesocricetus auratus) PCSK9 (Syrian golden hamster (Mesocricetus …)); experiment: SPR, mAb amine-coupled, 37C, pH 7.4
T2 construct: also called maPCSK9-h; maPCSK9
T2 chain: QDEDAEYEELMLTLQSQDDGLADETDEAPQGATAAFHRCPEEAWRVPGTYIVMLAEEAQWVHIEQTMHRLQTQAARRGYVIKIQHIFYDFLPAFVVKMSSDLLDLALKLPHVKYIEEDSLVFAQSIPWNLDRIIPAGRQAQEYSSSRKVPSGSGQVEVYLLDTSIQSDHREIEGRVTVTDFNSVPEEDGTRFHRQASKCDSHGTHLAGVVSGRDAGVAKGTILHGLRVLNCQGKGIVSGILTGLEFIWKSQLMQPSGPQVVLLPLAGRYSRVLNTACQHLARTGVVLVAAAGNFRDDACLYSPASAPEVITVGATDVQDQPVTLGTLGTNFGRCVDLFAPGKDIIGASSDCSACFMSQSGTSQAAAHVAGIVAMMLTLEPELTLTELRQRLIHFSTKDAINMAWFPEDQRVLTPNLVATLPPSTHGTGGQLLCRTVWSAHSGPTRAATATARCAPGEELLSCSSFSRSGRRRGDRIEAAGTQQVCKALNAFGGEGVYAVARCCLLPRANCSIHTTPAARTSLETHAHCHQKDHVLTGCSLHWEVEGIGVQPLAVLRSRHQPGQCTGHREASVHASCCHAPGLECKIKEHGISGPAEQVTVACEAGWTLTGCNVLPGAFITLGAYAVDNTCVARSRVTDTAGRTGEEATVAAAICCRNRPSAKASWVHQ
Excerpt: (§1) Briefly, mAbs were immobilized onto BIACORE™ CM5 sensor chips via amine coupling.

[3] = molecular target: T3, rat (Rattus norvegicus) PCSK9, myc-myc-his tagged (rat (Rattus norvegicus), UniProt P59996 31-691); experiment: SPR, mAb amine-coupled, 37C, pH 7.4
T3 construct: also called rPCSK9-mmh; rPCSK9
T3 sequence (P59996 31-691 limits assumed): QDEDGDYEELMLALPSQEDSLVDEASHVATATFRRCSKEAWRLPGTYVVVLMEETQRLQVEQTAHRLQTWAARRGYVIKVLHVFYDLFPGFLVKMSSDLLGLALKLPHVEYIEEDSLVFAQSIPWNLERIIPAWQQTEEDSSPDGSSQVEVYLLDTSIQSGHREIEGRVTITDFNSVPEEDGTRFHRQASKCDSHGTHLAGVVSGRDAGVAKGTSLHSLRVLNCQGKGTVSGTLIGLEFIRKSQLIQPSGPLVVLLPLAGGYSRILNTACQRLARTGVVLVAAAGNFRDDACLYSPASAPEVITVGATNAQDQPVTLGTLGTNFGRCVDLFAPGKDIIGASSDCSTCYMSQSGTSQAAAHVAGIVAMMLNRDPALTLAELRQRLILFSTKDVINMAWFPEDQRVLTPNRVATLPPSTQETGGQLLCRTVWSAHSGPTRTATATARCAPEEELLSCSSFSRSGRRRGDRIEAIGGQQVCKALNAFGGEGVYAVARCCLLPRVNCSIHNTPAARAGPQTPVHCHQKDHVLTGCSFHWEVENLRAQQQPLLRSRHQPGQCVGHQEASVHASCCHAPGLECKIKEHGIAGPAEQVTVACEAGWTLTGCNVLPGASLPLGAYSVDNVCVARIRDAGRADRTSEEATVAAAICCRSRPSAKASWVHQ
Excerpt: as §1

[4] = molecular target: T4, mouse PCSK9, myc-myc-his tagged (mouse, UniProt Q80W65 35-694); experiment: SPR, mAb amine-coupled, 37C, pH 7.4
T4 construct: also called mPCSK9-mmh; mPCSK9
Excerpt: as §1

Human PCSK9-myc-myc-his [5] = molecular target: T5, Human PCSK9-myc-myc-his (human, UniProt Q8NBP7 31-692); experiment: SPR, mAb captured, 37C
T5 construct: also called hPCSK9-mmh; hPCSK9
Description: Each selected antibody was captured at a flowrate of 2 μl/min for 6 min on a goat anti-human IgG polyclonal antibody surface created through direct chemical coupling to a BIACORE™ chip to form a captured antibody surface.

[6] = molecular target: T6, tagged rhesus monkey (Macaca mulata) PCSK9 (rhesus monkey (Macaca mulata), UniProt A8T666 31-692); experiment: SPR, 25C
T6 construct: also called mmPCSK9-mmh; mmPCSK9
T6 sequence (A8T666 31-692 limits assumed): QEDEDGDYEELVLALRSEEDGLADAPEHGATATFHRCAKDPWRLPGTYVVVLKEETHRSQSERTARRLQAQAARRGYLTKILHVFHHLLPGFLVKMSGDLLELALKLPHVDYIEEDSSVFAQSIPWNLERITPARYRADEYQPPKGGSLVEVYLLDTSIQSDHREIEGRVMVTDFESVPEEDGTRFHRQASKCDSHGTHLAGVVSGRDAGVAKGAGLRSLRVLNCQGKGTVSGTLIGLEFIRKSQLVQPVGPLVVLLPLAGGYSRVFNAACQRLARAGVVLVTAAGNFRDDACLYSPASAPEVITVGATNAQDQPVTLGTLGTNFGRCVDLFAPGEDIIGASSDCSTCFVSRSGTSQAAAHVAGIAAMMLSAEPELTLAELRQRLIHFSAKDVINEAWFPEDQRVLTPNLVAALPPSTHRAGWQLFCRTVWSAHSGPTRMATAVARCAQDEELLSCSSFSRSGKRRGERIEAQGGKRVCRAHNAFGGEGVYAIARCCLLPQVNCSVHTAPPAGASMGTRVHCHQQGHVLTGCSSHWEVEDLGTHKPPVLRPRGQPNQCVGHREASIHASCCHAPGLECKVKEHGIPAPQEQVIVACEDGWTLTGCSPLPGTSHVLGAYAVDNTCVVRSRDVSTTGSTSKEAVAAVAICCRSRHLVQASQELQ

[7] = molecular target: T3, rat (Rattus norvegicus) PCSK9, …; experiment: SPR, mAb captured on anti-hFc, 37C
[8] = molecular target: T4, mouse PCSK9, myc-myc-his tagged; experiment: SPR, mAb captured on anti-hFc, 37C
hPCSK9(D374Y)-mmh [9] = molecular target: T7, hPCSK9(D374Y)-mmh (human, UniProt Q8NBP7 31-692); experiment: SPR, mAb captured on anti-hFc, 37C
T7 construct: also called hPCSK(D374Y)-mmh

[10] = molecular target: T3, rat (Rattus norvegicus) PCSK9, …; experiment: SPR, mAb amine-coupled, 37C, pH 5.5
Excerpt: as §1

[11] = molecular target: T4, mouse PCSK9, myc-myc-his tagged; experiment: SPR, mAb amine-coupled, 37C, pH 5.5
Excerpt: as §1

Human PCSK9-myc-myc-his [12] = molecular target: T5, Human PCSK9-myc-myc-his; experiment: SPR, mAb captured on anti-hFc, 37C
[13] = molecular target: T6, tagged rhesus monkey (Macaca mulata) …; experiment: SPR, mAb captured on anti-hFc, 37C
hPCSK9(D374Y)-mmh [14] = molecular target: T7, hPCSK9(D374Y)-mmh; experiment: SPR, mAb captured on anti-hFc, 37C; remark: listed apart in the source
[15] = molecular target: T8, cynomolgus monkey (Macaca fascicularis) PCSK9, myc-myc-his tagged (cynomolgus monkey (Macaca fascicularis), UniProt A8T662 31-692 (Macaca nemestrina entry), limits assumed); experiment: SPR, mAb captured on anti-hFc, 37C
T8 construct: also called mfPCSK9-mmh; mfPCSK9
T8 sequence (A8T662 31-692 limits assumed): as the sequence (A8T666 31-692 limits assumed) above, with P607A, K639E counted along it

B1: H1H316P (antibody, V domains shown)
VH: EVQLVESGGGLVQPGGSLRLSCAASGFTFNNYAMNWVRQAPGKGLDWVSTISGSGGTTNYADSVKGRFIISRDSSKHTLYLQMNSLRAEDTAVYYCAKDSNWGNFDLWGRGTLVTVSS
VL: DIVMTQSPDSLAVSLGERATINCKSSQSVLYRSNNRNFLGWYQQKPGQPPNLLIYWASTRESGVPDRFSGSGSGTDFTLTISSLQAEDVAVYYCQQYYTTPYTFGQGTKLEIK
notes: Fully human mAb made in CHO cells; also called mAb316P
- OD [1]: > 1.5 od
- Kd [2]: 21.7 nM
- T1/2 [2]: 2 min
- Kd [3]: 55.1 nM
- T1/2 [3]: 2 min
- Kd [4]: 12.2 nM
- T1/2 [4]: 3 min
- Kd (Human PCSK9-myc-myc-his [5]): 1.08 nM
- T1/2 (Human PCSK9-myc-myc-his [5]): 11 min
- T1/2 [6]: 51 min
- koff [6]: 0.000229 s⁻¹
- Kd [7]: 37.5 nM
- T1/2 [7]: 1 min
- Kd [8]: 4.7 nM
- T1/2 [8]: 3 min
- Kd (hPCSK9(D374Y)-mmh [9]): 4.2 nM
- T1/2 (hPCSK9(D374Y)-mmh [9]): 4 min
- Kd [10]: 0.399 nM
- T1/2 [10]: 1 min
- Kd [11]: 13.6 nM
- T1/2 [11]: 3 min

B2: H1M300N (antibody, V domains shown)
VH: EMQLVESGGGLVQPGGSLRLSCAASGFTFSSHWMKWVRQAPGKGLEWVANINQDGSEKYYVDSVKGRFTISRDNAKNSLFLQMNSLRAEDTAVYYCARDIVLMVYDMDYYYYGMDVWGQGTTVTVSS
VL: not shown
notes: Fully human version made in CHO cells
- Kd (Human PCSK9-myc-myc-his [12]): 2.4 nM
- T1/2 (Human PCSK9-myc-myc-his [12]): 22 min
- Kd [13]: 1.6 nM
- T1/2 [13]: 26 min
- Kd (hPCSK9(D374Y)-mmh [14]): 2.2 nM
- T1/2 (hPCSK9(D374Y)-mmh [14]): 14 min
- Kd [15]: 3.8 nM
- T1/2 [15]: 11 min
